Assay results published in patent US20120301492A1.

Key:
[1] = target: mouse B6 class I antigens (Mouse MHC Class I; D^b or K^b molecules on the surface of RMA-S cells); assay: binding of 9-mer peptides within p117-139 to mouse B6 (H-2^b) class I antigens; RMA-S assay as for Table XLVII
[2] = target: mouse B6 class I antigens (Mouse MHC Class I; D^b or K^b molecules on the surface of RMA-S cells); assay: RMA-S class I stabilisation, flow cytometry with FITC anti-D^b or anti-K^b; % increase of MFI over medium alone, peptide 25 ug/ml

| Binder | Binding Affinity to Mouse MHC Class I [1] [%] | Binding Affinity to Mouse MHC Class I [2] [%] |
| --- | --- | --- |
| ARMFPNAPY [WT1 peptide P125-133 (…)] | 1 |  |
| ALLPAVPSL [WT1 peptide human p10-18 (…)] |  | 2.2 |
| NQMNLGATL [WT1 peptide p239-247 (…)] |  | 1 |
| NAPYLPSCL [WT1 peptide P130-138 (…)] | 79 |  |
| YSSDNLYQM [WT1 peptide p221-229 (…)] |  | 0.8 |
| QASSGQARM [WT1 peptide P119-127 (…)] | 2 |  |
| SQASSGQAR [WT1 peptide P118-126 (…)] | 2 |  |
| FPNAPYLPS [WT1 peptide P128-136 (…)] | 1 |  |
| PSQASSGQA [WT1 peptide P117-125 (…)] | 2 |  |
| GCNKRYFKL [WT1 peptide p329-337 (…)] |  | 1.2 |
| MFPNAPYLP [WT1 peptide P127-135 (…)] | 2 |  |
| NLYQMTSQL [WT1 peptide p225-233 (…)] |  | 5.8 |

The next lines start with the values.

| Binding Affinity to Mouse MHC Class I [1] [%] | Binding Affinity to Mouse MHC Class I [2] [%] | Binder |
| --- | --- | --- |
| 1 |  | APYLPSCLE [WT1 peptide P131-139 (…)] |
| 1 |  | SSGQARMFP [WT1 peptide P121-129 (…)] |
| 1 |  | QARMFPNAP [WT1 peptide P124-132 (…)] |
|  | 33.6 | CMTWNQMNL [WT1 peptide p235-243 (…)] |
|  | 1.2 | QMTSQLECM [WT1 peptide p228-236 (…)] |
| 1 |  | PNAPYLPSC [WT1 peptide P129-137 (…)] |
| 1 |  | ASSGQARMF [WT1 peptide P120-128 (…)] |
|  | 52 | SCLESQPAI [WT1 peptide human p136-144 (…)] |
